Data taken from US20230279121A1.

B1: EGFR-Protein-4 (bispecific antibody, part only; not given: unrelated Fab, Fc and junctions, not shown: another chain or arm of the molecule; a dimerising Fc or GST)
scFv: DIQMTQSPSSLSASVGDRVTITCQASQDISNYLNWYQQKPGKAPKLLIYDASNLETGVPSRFSGSGSGTDFTFTISSLQPEDIATYYCQHFRHLPLAFGCGTKVEIKGGGGSGGGGSGGGGSGGGGSQVQLQESGPGLVKPSETLSLTCTVSGGSVSSGDYYWTWIRQSPGKCLEWIGHIYYSGNTNYNPSLKSRLTISIDTSKTQFSLKLSSVTAADTAIYYCVRDRVTGAFDIWGQGTMVTVSS

What was measured:
[1] = biological target: Rhesus macaque EGFR (Rhesus macaque) (UniProt P55245); assay: SPR
human EGFR (human) = human EGFR (human) (UniProt P00533); assay: SPR
[2] = biological target: recombinant human EGFR-His (human) (UniProt P00533); assay: SPR, Biacore 8K, 37 C; protein captured on anti-hFc IgG chip, EGFR-His injected; N = 4

Molecule	Kd [1] [nM]	koff [1] [s⁻¹]	kon [1] [M⁻¹ s⁻¹]	Kd (human EGFR (human)) [nM]	koff (human EGFR (human)) [s⁻¹]	kon (human EGFR (human)) [M⁻¹ s⁻¹]	Kd [2] [nM]	koff [2] [s⁻¹]	kon [2] [M⁻¹ s⁻¹]
PANI-H_S62R-L_F87Y-L_D92R (scFv)	5.36	0.00112	209000	3.38	0.00099	293000			
B1							2.36	0.000745	316000
